Experimental data as given in the DeepSol protein solubility set.

Assay: soluble on expression in E. coli; label from the status in PepcDB or PDB records

Sequence	soluble on expression in E. coli
MSLVNDITYGREAEVWPRDYSMLARRIQFLRFNDYPIKLVSSNGHSIIGYISKFNQKENMILASDEAKGNNRVEVKLESIASLEELLVGKDFTTRLIVGDVFNNQPCPPTKKDFFSICNKCFKQGIGIKVHMLDGRILTGKTTGVNACQVGIIKSNGNHMQIMFDWVSRITSSDYSGEGHHHHHH	soluble
MSLVTLGEGFEKARLTRFLEKFGGNEGSQFLYLKDYGHFYYQEEGEDQVLFGFQMKFNKCFVLADPIGQREKWTAATLAFMDQADLLGYQLVFYRISEEYVMNLHDCGFEFMKVGEEGLIQFDEPSTVNQTAWTETVTEKIAAEAADFQFEFYPETISDALYQELERVSADWSRNQKERYFIGGRLDPEYLKCSSVGLVRQKQTVIGFITGKEMEKGKSISYDLLRIRSDAPAFTREYLFTHFIETYQQQGYQLIDIGMAPLANVGESKYSFLKERFVNIFYKYSYQIYAFQDTRKRKEQYVTSWQPRYFAYPKRTSVLFAFVQLSLLITKGRHQSVSLVEEAMTEIEGHHHHHH	soluble
MSLVVKVKQKIPLKIKRMGINGEGIGFYQKTLVFVPGALKGEDIFCQITAVKRNFAEAKLLTVNKASKNRVKPACSVYETCGGCQIMHLAYPKQLDFKDDVIRQALKKFKPTGYEQFEIRPTLGMKKPDHYRAKLQFQLRSFGGTVKAGLFSQGSHRLVPIDNCLVQDQLTQDIINKITQLVDKYKLPIYNERKIAGIRTIMVRKAQASDQVQIIVVSSKEVRLANFIGELTKAFPQVKTVALNSNRSKSSEIYGDETEILWGQEAIHEEVLDYGFALSPRAFYQLNPQQTEVLYGEVVKALDVGSKDHIIDAYCGVGSIGFAFAGKVKSVRGMDIIPEAIEDAQKNAKAMGFDNAYYEAGKAEDIISKWYKQGYRADAVIVDPPRTGLDDKLLKTILHYQPKQMVYVSCNTSTLARDLVQLTKVYDVHYIQSVDMFPHTARTEAVVKLQKRVEGHHHHHH	not soluble
MSLWHGVIVATSLPFDDDLSVDFGAYGESVAHLAAQGMHGVAPNGSLGEYQTLTYEERDRVVETAVANAPEGFTVMPGVGAYGGREAERHARFAKDAGCQAVMCLPPNAYRADDRAVLQHFERVASVGLPVTAYNNPIDTKVDLRPDLLAKLHAEGYIVGVKEFSGDVRRCYEISELAPGLDLMIGTDDTVLEVALAGAKGWVAGYPQVFPRACLALYEASVRGDLEAALPLYRQLHPVLRWDSKTEFVQAIKLGQELTGRRGGPCRPPRQPLAPETEAVVRAATQALVDAGVNEGHHHHHH	soluble
MSLYEITQYRLPHLSESAEALCHADKRPVFVGDSAAKPGLQLQQDETRWHSARQHRWSTPLAHQLQRSVQRLLLADNCEGKLTVWVDDFYGSNDSRAVVAGHWEYKSQDSQTVLKGTFTESTPLKSDGYPALVNALDEAWLNVMDTISLGVGQKLAREGHHHHHH	soluble
MSLYFSGEPAQIAEIKRLASGAVTPLYRRATNEGIQLFLAGSAGLLQTTEDVRFEPCPGLTAAGRGVVSPENIAFTRWLTHLQDGVLLDEQNCLMLHELWLQSGTGRRRWEELPDDARESITALFTPKRGDWCDIWSNEDVSVWWNRLCDNVLPEKTMPFDLLTVLSTRLDVEVNGFNGGVLNGVPSAYHWYTEQYGVKWPCGYEVNISSQGDNFIQVDFDTPWCQPESDVIAVLSRRFSCMLEHWYAGQGCNFCGWQRYERGELVDVLWGELEWSSPTDDDELPEVTAPEWIVDKVAHYGGEGHHHHHH	not soluble
MSLYIPCLMCTQHPDSTVKITAGEEVDEAVVAFLAYGCDEVMVDYEGKATPYSQPRDVASKALALGLPLGERFFITPRVPNPRLEDFERSMLSLEAAVLANSYSQRAAGVQAVKWVVLPMTEDVETMAFVYKALDMKARDLAELNAVKRDSSIELIPLVEDAMRQIKIESFIKALFRTAAQSGRILEHMRIFLGISDSAVRHGHMASALAMVKALGQISEINRDGEFKISPIVGMGSPPFRGGLNNPHLAVPEAAQYAGYKTATIQSAVRYDVSYAEYQKVREAILSVYTPRRLHVEEAWITKASELYREAIRPYIGKIAELANAIPSTRDRVSWREYGRVIEGVEWRVPRAIVYTATWYFAGVPPTLLDARFIAWAYKNDLLDDVLRALPATVEEWKFESRFYSRERAEKTLGGEIVKDIDNAFDILGIKPEPDRTYITLLNSADTQPHAIALGRIRGFLGEGHHHHHH	not soluble
MSLYIQNLELTSYRNYDHAELQFENKVNVIIGENAQGKTNLMEAIYVLSMAKSHRTSNDKELIRWDKDYAKIEGRVMKQNGAIPMQLVISKKGKKGKVNHIEQQKLSQYVGALNTIMFAPEDLNLVKGSPQVRRRFLDMEIGQVSPVYLHDLSLYQKILSQRNHFLKQLQTRKQTDRTMLDVLTDQLVEVAAKVVVKRLQFTAQLEKWAQPIHAGISRGLEELTLKYHTALDVSDPLDLSKIGDSYQEAFSKLREKEIERGVTLSGPHRDDVLFYVNGRDVQTYGSQGQQRTTALSLKLAEIDLIHEEIGEYPILLLDDVLSELDDYRQSHLLHTIQGRVQTFVTTTSVDGIDHETLRQAGMFRVQNGALVKEGGSHHHHHH	soluble
MSLYLIVGAYPSTPQVMKNIKMTSDALKKKESLICLNVLSKYNPEKHSNTSKRLPVKFFSGVLIVLMNTDNWASLEKRFSSEIANWRSGGNVICIAIGELGKFKGNDTYYLKTLQIALMNVDDNWIPADSSYELTMLNYLHKHERSFIKPLRYDASNNDVFPDFCLTDIGSTELFPIEVFGMDTASYLARKVIKESYYNERYGKDGWASWEAPAGPLPICPIRPAVNYQMLLEGHHHHHH	not soluble
MSLYSDQLVCPAHVPRGSPEGRVDAIAAMVTTRTAVQAPVERRTALFVNGQAWLTAQTTPHDLADWAVGRLCGEGLIAGPEEIAHLAVDEAGPCVHAVLPRVRTPAPPAPVAPGPRVAEAQLLRWMQEMLAQAPLYRATGGMHVAMAVRADSGEQIVREDIGRHQAVDKVLGAARLAGWPPAQVVVLTSGRISAEMCARVARFGAPVCASRTAATDEAWALATRLGMDLVGYVRTAASLIVYTTGNRVARRIEPEGHHHHHH	soluble
MSLYSVISKILNFILVKMSKSLYVIGKDNIPKDSKYVVTCTHESYNEVIMLGMALYPNQIHYMAKKELFKNKWIGKFLTSLNAFPVDRENPGPSTLKRPINLLKDNKTVGIFPTGSRTSQEGAPLKRGASTIAMLSKSPILPVAYVGPTKIHGLLTGQAYINIGKPIDINDLPKDLKRNERIDYITKEIETRTAKLQQELHEIVKSEGHHHHHH	soluble
MSMAMSQSNRELVVDFLSYKLSQKGYSWSQFSDVEENRTEAPEGTESEMETPSAINGNPSWHLADSPAVNGATGHSSSLDAREVIPMAAVKQALREAGDEFELRYRRAFSDLTSQLHITPGTAYQSFEQVVNELFRDGVNWGRIVAFFSFGGALCVESVDKEMQVLVSRIAAWMATYLNDHLEPWIQENGGWDTFVELYGNNAAAESRKGQERLEHHHHHH	soluble
MSMIDIDPPSFQSPRPIAGDDGNRRTVLYGDYTVFSVFQPVFSVSHRRAIGYHASLRAHDSQGNQVPSHDVFTQAARRGDLLELGRLAESLHLGNFHTFDSHDEWLFLSLHPAALMDTVYGDALLANLKALGLPPQRVVLEVPEQAGGETPRFAAIVDGLRKAGFLIALGGFGAKHSNIDRVWHLHPDIVTLDRGILAQASEHSHLERVLPGLVSLLHESGQLVLMGGITTEREALIALECDVDFVQGQYFAGP	not soluble
MSMLSMDGIVAGGGSSSGGGERSFVLEQKMFNTGPQNKALPTVQSSGSSSNHAPIVGESPLGTVSSTMATGDTGRVGNVTYMSSGMLGATQFMPQNSSHPSTSVMMQQVPPQNGGATRSSPTEMQQCMQAMSEDSIEMRDYNSGVHHMHPHQMQMQQQQQHHQQQYNMSYHNHQQQMQQMHYHQQQQQYQQQQAQHHQMYAPQIQQQQQQPQQQSQQQSAQQPQQSSAALQHVNESSNLSSAGSISDREPEQHGGTPQRPTAPQSSTATDKKTRKRRKAGPTEDQATPKQERKITEFMKVGGEVASGNSVARCLLTEYHQNQGSPKRQPAVQQNGSNSYDSQQQQPQMNQHEMQNSYWGVATPSLGVNNRGTPTPTQQQHYSSDSNSNSNQSPPGQGNQSGRMVRTIDEETQTDSSLSQANPQNADEVAKMNRIIEDHRRQIEELNSKNSLERRKNEASKETIKRLLIDKNQIERKALRDKTAADSPRIGCFKTTRTGDSFRDQWVDGWAFAEMDKKTEQINAERNEIASASALLKKRKPLGIGKEPKRPQAVNSQNDSNGMQPSTSSNTNGDDAIFRRPEEPKEIQYQEYIELDEIYKLRREHLRKEETDLSMEKERLEKEKQHHVRELKRASNESASQFNDHRLLHKRYLMLNLLGKGGFSEVWKAFDIEENRYVACKIHHVNKDWKEEKKANYVKHAMREKDIHKSLDHCRIVKQYDLLTIDNHSFCTVLEYVPGNDLDFYLKQNRSISEKEARSIIMQVVSALVYLNEKSTPIIHYDLKPANILLESGNTSGAIKITDFGLSKIMEGESDDHDLGIELTSQFAGTYWYLPPETFIVPPPKITCKVDVWSIGVIFYQCIYGKKPFGNDLTQQKILEYNTIINAREVSFPSKPQVSSAAQDFIRRCLQYRKEDRADVFELAKHELFRPRGAIRASVAGSVSSPSIPRSPSVNREDDNM	not soluble
MSNAFEYLRTYVESTTETDAAVARAREDAAEFGLPAPDEMTGQLLTTLAATTNGNGSTGAIAITPAAGLVGLYILNGLADNTTLTCIDPESEHQRQAKALFREAGYSPSRVRFLLSRPLDVMSRLANDSYQLVFGQVSPMDLKALVDAAWPLLRRGGALVLADALLDGTIADQTRKDRDTQAARDADEYIRSIEGAHVARLPLGAGLTVVTKALEHHHHHH	soluble
MSNDQLKSKLREFFDRQPDQSEKAHQDSKIFEVLYSQFLENQHCIDWNSWKFLEEKHQVTLKDLEPFDKSRFNILNKLAVIKLNGGLGTTMGCSKAKSLVEVREGYTFMDLAVLEHQKMCEAHNVDTPLYLMNSFYTDEDTKKYLAEKGYSNVKTFVQSKCPRLDAETKLPIEDENEDWGDDAWCPPGHGNIFQSLQNSGVLDQLLADGREIIFVSNIDNTGANTDLQIVQLMLDKNVDYIMECTPKTQVDVKGGTLIDIGGRMMHLEMPQVPAENLPDFCSTKVFKIFNTNNIYVNLKAVKKLLPDIKSEIIVNKKTIRSREVLQLEFSIGGCIKNFDNALCVHVERKRFRPVKNLGDLLSLRSTLCDLDHSTFKVHHNHELGAPPVISLDPSIYNSVEVVDLKFPHPLVMDNCSEFAVVGDVTFGKNVKLSGKVTVNGKTESPGVVPDGTVLKDQEYIAE	not soluble
MSNEHTRPPLPPFTRESAIEKVRLAEDGWNTREPEKIALAYTVDTQWRNRAEFANNREEARDFLTRKWKKELDYRLIKELWAFTDNRIAVRYAYEWHDDSGNWFRSYGNENWEFEADGLMHRRFACINDMPIKESERKFHWPLGRRPDDHPGLTELGLLEHHHHHH	not soluble
MSNEMKILLANPRGFCAGVDRAISIVERALELYQPPIYVRHEVVHNRFVVEGLKQRGAIFVEELHEVPDNNIVIFSAHGVSQAVRQEAKQRDLTVFDATCPLVTKVHMEVARASRRNMEVVLIGHAGHPEVEGTMGQYSSETGGMYLVETPADVEKLKAIVKDPSDLHYVSQTTLSVDETADVIEELRRVFPDIQGPRKDDICYATQNRQDAVRELAGDVDVMVVVGSKNSSNSTRLKELAEKLGTPGYLTDCPEDIKPEWFEGKTKVGVTAGASAPEELVNQILERIKELVGARSVDEVLGREENMFFEVPKELQIKQVD	not soluble
MSNIIVLSGSPRKGGNTDLLVDAFVKGAEKSNNVEVVSVAYYKVNPCIGCNSCFDRAGHECFQQDDMQIVYDKLKCADVIVVASPVYFYGVSAQLKAIIDRLHTPMRNDFKVKKLALILVGAAVLPELFDSIKIQYQLVLNFFKLEDAGMVLVRGAKDKGDVRNTDGLDEAYRLGLAME	not soluble
